1 substance from paper PMC8267615 can be followed below.

Experiment [1] concerns the target TREM-1 expressed on the monocyte cell membrane (human (endogenous in monocytes)) (UniProt Q9NP99).
For experiment [2] the target is unchanged. This is another data set of the same source.

Sequence of TREM-1 expressed on the monocyte cell membrane (human (endogenous in monocytes)) (Q9NP99 21-234): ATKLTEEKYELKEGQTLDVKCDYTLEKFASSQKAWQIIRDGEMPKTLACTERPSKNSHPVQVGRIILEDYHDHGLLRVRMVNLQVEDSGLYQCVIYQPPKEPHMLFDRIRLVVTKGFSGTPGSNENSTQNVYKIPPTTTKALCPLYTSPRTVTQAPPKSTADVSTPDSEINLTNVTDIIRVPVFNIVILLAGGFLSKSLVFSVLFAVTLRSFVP

In experiment [1], “recombinant human Hsp70 (major heat shock protein 70) (from UniProt P0DMV8 1-641) (natural protein)” returned a cytotoxicity against target cells of lymphocytes activated in PBMCs by six-day treatment with rising Hsp70 concentration (half maximal effective concentration) of 0.5 nM and an inhibition of the cytotoxicity of Hsp70-activated lymphocytes by the TREM-1 inhibitor peptide LP17 (…), against LP17 concentration; not completely suppressed at higher concentration of 0.01 nM. Further, in experiment [2], the cytotoxic activity of NK cells isolated on days four and six from PBMCs incubated with Hsp70 with or without the TREM-1 inhibitor LP17 (no difference on day six) is 40%.
